# Where “and” joins values, the source holds several entries; their conditions need not be identical. Equal entries are not always repeated.
# B1: MISO-Flag (human C3orf33, long isoform), in U2OS cells (natural protein, UniProt Q6P1S2 1-294, looked up)
# chain: MAGQPAATGSPSADKDGMEPNVVARISQWADDHLRLVRNISTGMAIAGIMLLLRSIRLTSKFTSSSDIPVEFIRRNVKLRGRLRRITENGLEIEHIPITLPIIASLRKEPRGALLVKLAGVELAETGKAWLQKELKPSQLLWFQLLGKENSALFCYLLVSKGGYFSVNLNEEILRRGLGKTVLVKGLKYDSKIYWTVHRNLLKAELTALKKGEGIWKEDSEKESYLEKFKDSWREIWKKDSFLKTTGSDFSLKKESYYEKLKRTYEIWKDNMNNCSLILKFRELISRINFRRKG
# Biological target: the molecule itself
# Experiment: cross-linking
protein,measurement,value
B1,stoichiometry N,2 and 3
